Data on three molecules can be found in PMC7407374, “Addressing the Molecular Mechanism of Longitudinal Lamin Assembly Using Chimeric Fusions” (Cells, 2020).

In series [1] the target is Gp7_(F40C)-LA 327-403 (bacteriophage φ29 | human) (UniProt P13848). Description: SEC-MALS; inline MALS (Dawn Heleos) on Superdex 200 Increase 10/300 GL at 20 °C; individual proteins and 1:1 mixtures; 150 mM NaCl with 10 mM Hepes pH 7.5 or 10 mM TEA pH 7.0. In general terms: Size exclusion chromatography separates by hydrodynamic size, large species first.
Series [2] concerns the molecule itself. Described as above.

Broadly, the stoichiometry N is the number of molecules, sites or subunits per partner or assembly.

“Gp7_(F40C)-LA 327-403 (from UniProt P13848 1-49; P02545 327-403) (domain or fragment)”: the stoichiometry N in series [1] stood at 2.

B1: LA 22-70-Eb1 (domain or fragment, UniProt P02545 22-70, looked up)
chain: SPTRITRLQEKEDLQELNDRLAVYIDRVRSLETENAGLRLRITESEEVVDFYFGKLRNIELICQENEGENDPVLQRIVDILYATDE
notes: human lamin A, residues 22-70: truncated head domain, coil1A and the first three residues of linker L1; also called N-terminal fragment; N-terminal construct; source: E. coli Rosetta 2 (DE3) pLysS, purified (Ni column, tag cleavage, second Ni column, SEC); not shown: His6, N-terminal, cleaved; SUMO, N-terminal, cleaved
On to B1, for which the “stoichiometry N” value in series [2] worked out at 2.

B2: LA 17-70-Eb1 (domain or fragment, UniProt P02545 17-70, looked up)
chain: SSTPLSPTRITRLQEKEDLQELNDRLAVYIDRVRSLETENAGLRLRITESEEVVDFYFGKLRNIELICQENEGENDPVLQRIVDILYATDE
notes: human lamin A, residues 17-70: truncated head domain, coil1A and the first three residues of linker L1; also called N-terminal fragment; N-terminal construct; source: E. coli Rosetta 2 (DE3) pLysS, purified (Ni column, tag cleavage, second Ni column, SEC); not shown: His6, N-terminal, cleaved; SUMO, N-terminal, cleaved
Consider B2, for which the “stoichiometry N” value in series [2] was found to be 2.
